Patent US20230364254A1, “METHODS FOR TREATING CANCERS WITH ANTIBODY DRUG CONJUGATES (ADC) THAT BIND TO 191P4D12 PROTEINS” (priority 2020, published 2023)

Tested on: patients with locally advanced or metastatic urothelial cancer
Assay: Same phase 2 study: safety (adverse events, NCI CTCAE v4.03)
Type: in vivo, human
Description: Safety assessments will be based on the information collected through the safety surveillance process and will include the data from recorded adverse events (AEs) including SAEs, recording of concomitant medication, physical examination findings, cardiac monitoring, and laboratory tests.
The assessment of safety during the course of this study will consist of the surveillance and recording of AEs including SAEs, recording of concomitant medication, and measurements of protocol-specified physical examination findings, cardiac monitoring, and laboratory tests.
AE severity should be graded using the National Cancer Institute's Common Terminology Criteria for Adverse Events (NCI CTCAE), Version 4.03. These criteria are provided in the study manual.
An overview of AEs will provide a tabulation of the incidence of all AEs, treatment-emergent AEs, treatment-related AEs, Grade 3 and higher AEs. SAEs, treatment-related SAEs, deaths, and AEs leading to study treatment discontinuation. Adverse events will be defined as treatment emergent if they are newly occurring or worsened following study treatment.
AEs will be classified by system organ class and preferred tem using the Medical Dictionary for Regulatory Activities (MedDRA) and graded using NCI CTCAE, Version 4.03.
The incidence of AEs will be summarized by system organ class, preferred term, severity and relationship to study drug. In the event of multiple occurrences of the same AE in one patient, the AE will be counted once as the occurrence for the maximum grade. AEs leading to premature discontinuation of study drug will be summarized and listed in the same manner.

[1] = Cohort 1 (N = 125), count (percent)

## enfortumab vedotin: Nectin-4 directed ADC: fully human anti-nectin-4 IgG1 kappa antibody (AGS-22C3) conjugated to MMAE via protease-cleavable maleimidocaproyl valine-citrulline linker
Cohort 1 (N = 125)
  AE of special interest, All Grade: Hyperglycemia: 20 (16) N (%)
  AE of special interest, All Grade: IRR: 8 (6.4) N (%)
  AE of special interest, All Grade: Ocular Events, Blurred Vision: 21 (16.8) N (%)
  AE of special interest, All Grade: Ocular Events, Corneal Disorders: 18 (14.4) N (%)
  AE of special interest, All Grade: Ocular Events, Dry Eye Disorders: 51 (40.8) N (%)
  AE of special interest, All Grade: Peripheral Neuropathy: 70 (56) N (%)
  AE of special interest, All Grade: Rash: 67 (53.6) N (%)
  AE of special interest, ≥Gr 3: Hyperglycemia: 10 (8) N (%)
  AE of special interest, ≥Gr 3: IRR: 1 (0.8) N (%)
  AE of special interest, ≥Gr 3: Peripheral Neuropathy: 5 (4) N (%)
  AE of special interest, ≥Gr 3: Rash: 15 (12.0) N (%)
  Any TEAEs: 125 (100.0) n (%)
  Any TEAEs leading to death: 7 (5.6) n (%)
  Any TEAEs leading to treatment discontinuation: 21 (16.8) n (%)
  Any grade 3-5 TEAEs: 92 (73.6) n (%)
  Any serious TEAEs: 58 (46.4) n (%)
  SAEs (All): Acute kidney injury: 4 (3.2) n (%)
  SAEs (All): Cellulitis: 6 (4.8) n (%)
  SAEs (All): Diarrhoea: 3 (2.4) n (%)
  SAEs (All): Febrile neutropenia: 5 (4.0) n (%)
  SAEs (All): Nausea: 3 (2.4) n (%)
  SAEs (All): Overall: 59 (47.2) n (%)
  SAEs (All): Pneumonia: 3 (2.4) n (%)
  SAEs (All): Sepsis: 4 (3.2) n (%)
  SAEs (All): Urinary tract infection: 6 (4.8) n (%)
  SAEs (Related): Acute kidney injury: 1 (0.8) n (%)
  SAEs (Related): Cellulitis: 2 (1.6) n (%)
  SAEs (Related): Diarrhoea: 1 (0.8) n (%)
  SAEs (Related): Febrile neutropenia: 5 (4.0) n (%)
  SAEs (Related): Nausea: 3 (2.4) n (%)
  SAEs (Related): Overall: 24 (19.2) n (%)
  Treatment-related AE leading to discontinuation: Asthenia: 1 (0.8) n (%)
  Treatment-related AE leading to discontinuation: Drug eruption: 1 (0.8) n (%)
  Treatment-related AE leading to discontinuation: Enterocolitis: 1 (0.8) n (%)
  Treatment-related AE leading to discontinuation: Fatigue: 1 (0.8) n (%)
  Treatment-related AE leading to discontinuation: Hyperglycaemia: 1 (0.8) n (%)
  Treatment-related AE leading to discontinuation: Interstitial lung disease: 1 (0.8) n (%)
  Treatment-related AE leading to discontinuation: Overall: 15 (12.0) n (%)
  Treatment-related AE leading to discontinuation: Peripheral sensory neuropathy: 8 (6.4) n (%)
  Treatment-related AE leading to discontinuation: Stevens-Johnson syndrome: 1 (0.8) n (%)
  Treatment-related TEAEs: 117 (93.6) n (%)
  Treatment-related TEAEs (all grades): Alopecia: 62 (49.6) n (%)
  Treatment-related TEAEs (all grades): Anaemia: 27 (21.6) n (%)
  Treatment-related TEAEs (all grades): Aspartate aminotransferase increased: 17 (13.6) n (%)
  Treatment-related TEAEs (all grades): Decreased appetite: 55 (44.0) n (%)
  Treatment-related TEAEs (all grades): Diarrhoea: 41 (32.8) n (%)
  Treatment-related TEAEs (all grades): Dry eye: 25 (20.0) n (%)
  Treatment-related TEAEs (all grades): Dry skin: 30 (24.0) n (%)
  Treatment-related TEAEs (all grades): Dysgeusia: 47 (37.6) n (%)
  Treatment-related TEAEs (all grades): Fatigue: 62 (49.6) n (%)
  Treatment-related TEAEs (all grades): Lacrimation increased: 21 (16.8) n (%)
  Treatment-related TEAEs (all grades): Nausea: 50 (40.0) n (%)
  Treatment-related TEAEs (all grades): Neutropenia: 13 (10.4) n (%)
  Treatment-related TEAEs (all grades): Oedema peripheral: 15 (12.0) n (%)
  Treatment-related TEAEs (all grades): Overall: 117 (93.6) n (%)
  Treatment-related TEAEs (all grades): Peripheral sensory neuropathy: 50 (40.0) n (%)
  Treatment-related TEAEs (all grades): Pruritus: 32 (25.6) n (%)
  Treatment-related TEAEs (all grades): Rash maculo-papular: 28 (22.4) n (%)
  Treatment-related TEAEs (all grades): Vomiting: 19 (15.2) n (%)
  Treatment-related TEAEs (all grades): Weight decreased: 29 (23.2) n (%)
  Treatment-related TEAEs leading to death: 0 n (%)
  Treatment-related TEAEs leading to treatment discontinuation: 15 (12.0) n (%)
  Treatment-related TEAEs ≥Grade 3: Acute kidney injury: 1 (0.8) n (%)
  Treatment-related TEAEs ≥Grade 3: Amylase increased: 3 (2.4) n (%)
  Treatment-related TEAEs ≥Grade 3: Anaemia: 9 (7.2) n (%)
  Treatment-related TEAEs ≥Grade 3: Aspartate aminotransferase increased: 4 (3.2) n (%)
  Treatment-related TEAEs ≥Grade 3: Decreased appetite: 1 (0.8) n (%)
  Treatment-related TEAEs ≥Grade 3: Diarrhoea: 3 (2.4) n (%)
  Treatment-related TEAEs ≥Grade 3: Fatigue: 8 (6.4) n (%)
  Treatment-related TEAEs ≥Grade 3: Febrile neutropenia: 5 (4.0) n (%)
  Treatment-related TEAEs ≥Grade 3: Hyperglycaemia: 5 (4.0) n (%)
  Treatment-related TEAEs ≥Grade 3: Hyponatraemia: 3 (2.4) n (%)
  Treatment-related TEAEs ≥Grade 3: Lipase increased: 5 (4.0) n (%)
  Treatment-related TEAEs ≥Grade 3: Neutropenia: 10 (8.0) n (%)
  Treatment-related TEAEs ≥Grade 3: Neutrophil count decreased: 3 (2.4) n (%)
  Treatment-related TEAEs ≥Grade 3: Overall: 70 (56.0) n (%)
  Treatment-related TEAEs ≥Grade 3: Peripheral sensory neuropathy: 2 (1.6) n (%)
  Treatment-related TEAEs ≥Grade 3: Pruritus: 2 (1.6) n (%)
  Treatment-related TEAEs ≥Grade 3: Rash erythematous: 4 (3.2) n (%)
  Treatment-related TEAEs ≥Grade 3: Rash maculo-papular: 5 (4.0) n (%)
  Treatment-related grade 3-5 TEAEs: 70 (56.9) n (%)
  Treatment-related serious TEAEs: 24 (19.2) n (%)
[1]
  TEAEs leading to death (excluding disease progression): Acute respiratory failure: 1 (0.8)
  TEAEs leading to death (excluding disease progression): Cardiac disorder: 1 (0.8)
  TEAEs leading to death (excluding disease progression): Overall: 4 (3.2)
  TEAEs leading to death (excluding disease progression): Pneumonia aspiration: 1 (0.8)
  TEAEs leading to death (excluding disease progression): Sepsis: 1 (0.8)
Cohort 2 (N = 89)
  AE of special interest, All Grade: Hyperglycemia: 16 (18) N (%)
  AE of special interest, All Grade: IRR: 6 (6.7) N (%)
